In general, Kd refers to the equilibrium constant for the complex coming apart. A lower Kd goes with a tighter complex.

The record followed here is doi:10.1101/2022.06.13.495963.

Holding throughout (assay): ITC
(In general: Isothermal titration calorimetry measures the heat released or taken up as one component is titrated into another.)

In test [1] the target is NRD^510-600 T538A, not phosphorylated (NRD^T538A) (human) (UniProt P10244).
The target in test [2] is B-Myb negative regulatory domain, C-terminal half, amino acids 510-600 (NRD^510-600) (human) (UniProt P10244).
For test [3], the target named is NRD^510-600 S577A, not phosphorylated (NRD^S577A) (human) (UniProt P10244).
Chain of NRD^510-600 S577A, not phosphorylated (NRD^S577A) (human) (P10244 510-600 S577A): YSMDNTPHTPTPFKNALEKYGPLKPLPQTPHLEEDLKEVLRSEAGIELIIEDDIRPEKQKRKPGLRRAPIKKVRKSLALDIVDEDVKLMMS

Chain of NRD^510-600 T538A, not phosphorylated (NRD^T538A) (human) (P10244 510-600 T538A): as the sequence (P10244 510-600 S577A) above, with T29A, A68S counted along it
Chain of B-Myb negative regulatory domain, C-terminal half, amino acids 510-600 (NRD^510-600) (human) (P10244 510-600): as the sequence (P10244 510-600 S577A) above, with A68S counted along it

For the substance “B-Myb DNA binding domain (B-Myb^34-183) (from UniProt P10244-1 34-183) (domain or fragment)”, the Kd in test [1] was found to be 6.5 µM; in test [2], 4.9 µM; in test [3], 3.2 µM.
